In US9012606B2, “In vivo half life increased fusion protein or peptide maintained by sustained in vivo release, and method for increasng in vivo half-life using same” (Alteogen, Inc., priority 2009, dated 2015):

Columns and labels:
[1] = Pharmacokinetics of hGH and hGH/alpha-1 antitrypsin fusions (serum ELISA); format: in vivo; conditions: Sprague-Dawley rats, subcutaneous, 720 μg/kg
Protocol: An anti-human growth hormone monoclonal antibody (Medix Biochemica, Finland) was diluted to a concentration of 1-5 μg/mL in phosphate buffered saline (PBS) and the dilution was aliquoted in an amount of 100 μL/well onto a 96-well plate (Nunc, Denmark) and incubated at room temperature for 15-18 hrs. After the antibody remaining suspended was removed, PBS containing 1% bovine serum albumin was plated in an amount of 250 μL/well and incubated at room temperature for 2 hours. The plates were washed three times with wash buffer (0.05% Tween 20, PBS) and the solution was aspirated. Samples were diluted in PBS containing 1% bovine serum albumin and added to the 96-well plates before incubation at room temperature for 2 hrs. The 96-well plates were washed five times with wash buffer and 100 μL of the human growth hormone monoclonal antibody-biotin conjugate prepared using sulfo-NHS-biotin (Pierce biotechnology, U.S.A.) was added to each well of the 96-well plates and then incubated at room temperature for 2 hrs. The plates were washed five times with wash buffer and incubated with streptabidin-HRP at room temperature for 30 min. Again, the plates were washed five times with wash buffer and reacted with 100 μL of a mixture of TMB (3,3′,5,5′-tetramethylbenzidine) and hydrogen peroxide per well for 30 min in a dark place. To each well was added 100 μL of 1 M sulfuric acid to terminate the reaction, followed by measuring absorbance at 450 nm on a VersaMax microplate reader (Molecular Device, U.S.A.). Values for each sample were calculated by regression analysis after a standard curve was plotted for a reference material.
Sprague-Dawley rats were used as experimental animals and three of them were administered with human growth hormone while five rats were assigned to each of the fusion-administered groups. The human growth hormone/alpha-1 antitrypsin fusion [T109wt: α1AT/hGH], the human growth hormone/alpha-1 antitrypsin monovariant fusion [T109: α1AT(P357N)/hGH], and the human growth hormone/alpha-1 antitrypsin divariant fusion [T109T: α1AT(P357N, S359T)/hGH], all prepared in Examples 1-3, were subcutaneously injected at a dose of 720 μg/kg into respective groups of Sprague-Dawley rats. The samples were diluted in PBS before injection. Blood samples were taken at 0, 1, 2, 4, 8, 12, 16, 24, 30 and 48 hrs after the injection, and centrifuged to obtain sera. For a control, Scitropin (SciGen, Singapore), a kind of human growth hormone, was subcutaneously injected at a dose of 200 μg/kg. PBS was used as a diluent. Blood samples were taken at 0, 0.33, 1, 2, 5, 8, 12, 18, 24, 30 and 48 hrs after the injection, and centrifuged to obtain sera. Each sample was analyzed in the same manner as the enzyme immunoassay of Test Example 1.

[2] = system: rat lymphoma cell line (NB2 cell); assay: In vitro activity in NB2 cells (MTS method); format: cell-based; conditions: 48 hrs
Protocol: The rat lymphoma cell line (NB2 cell) was maintained in RPMI1640 supplemented with 10% HS (Horse serum), 10% FBS, 2-mercaptoethanol and antibiotics at 37° C. under a 5% CO2 condition. For 24 hrs before experiment, NB2 cells were incubated in RPMI 1640 supplemented with 10% HS. Thereafter, the NB2 cells were washed once with 1×DPBS (Dulbecco's Phosphate Buffered Saline), and plated at a density of 2×10^4 cells/100 μL/well in 5% HS-supplemented RPMI 1640 in 96-well plates (Corning, U.S.A.) with final volume of 100 μL. A series of concentrations of the samples were added in an amount of 20 μL to each well of the 96-well plates, followed by incubation at 37° C. for 48 hrs under a 5% CO2 condition. Subsequently, 20 μL of an MTS solution (Promega, U.S.A.) was added to each well of the 96-well plates and allowed to react at 37° C. for 3 hrs under a 5% CO2 condition. The reaction was terminated by adding 20 μL of 10% SDS (sodium dodecyl sulfate) to each well. Absorbance was measured at 490 nm using a VersaMax microplate reader (Molecular Device, U.S.A.).

trypsin = biological target: T1, trypsin (Bos taurus, UniProt P00760); assay: Inhibitory activity against trypsin; format: biochemical; conditions: trypsin and fusion 10 nM each, 1 hr room temperature
T1 construct: gene PRSS1
T1 sequence (P00760 24-246): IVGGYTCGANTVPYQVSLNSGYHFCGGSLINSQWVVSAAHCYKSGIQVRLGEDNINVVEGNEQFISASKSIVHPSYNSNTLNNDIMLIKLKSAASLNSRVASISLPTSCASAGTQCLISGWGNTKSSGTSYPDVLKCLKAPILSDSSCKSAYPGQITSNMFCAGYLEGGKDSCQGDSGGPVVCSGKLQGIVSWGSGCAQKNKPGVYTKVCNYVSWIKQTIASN
Protocol: (§1) The human growth hormone/alpha-1 antitrypsin fusion [T109wt: α1AT/hGH] prepared in Example 1 and the human growth hormone/alpha-1 antitrypsin monovariant fusion [T109: α1AT(P357N)/hGH] prepared in Example 1 were separately mixed with trypsin. Trypsin and the fusions were used at a concentration of 10 nM, respectively. After being incubated at room temperature for 1 hr, the mixture was reacted with 0.2 mM of the substrate N-Benzoyl-Val-Gly-Arg p-nitroanilide hydrochloride (Sigma, U.S.A.), followed by measuring absorbance at 405 nm. Trypsin unit was set to be the concentration of substrate causing a change in absorbance of 0.001 and the enzyme activity was expressed as units/mg trypsin. For comparison, trypsin was used as a control.

[3] = biological target: T2, human neutrophil elastase (Homo sapiens, UniProt P08246); assay: Inhibitory activity against human neutrophil elastase; format: biochemical; conditions: elastase and fusion 40 nM each, 1 hr room temperature
T2 sequence (P08246 30-267): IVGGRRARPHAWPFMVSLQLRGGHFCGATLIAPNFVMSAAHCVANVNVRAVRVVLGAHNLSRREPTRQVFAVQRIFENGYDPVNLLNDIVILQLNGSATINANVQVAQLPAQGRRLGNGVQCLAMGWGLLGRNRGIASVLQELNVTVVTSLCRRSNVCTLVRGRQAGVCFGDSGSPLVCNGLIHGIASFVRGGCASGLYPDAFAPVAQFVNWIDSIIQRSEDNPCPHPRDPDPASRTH
Protocol: as §1, with “with human neutrophil elastase. The elastase” for “with trypsin. Trypsin”, “of 40” for “of 10”, “with 1” for “with 0.2”, “substrate MeOSuc-AAPV-pNA (Santa Cruz Biotechnology, Inc.,” for “substrate N-Benzoyl-Val-Gly-Arg p-nitroanilide hydrochloride (Sigma,”, “nm. Human neutrophil elastase” for “nm. Trypsin”, “units/mg elastase.” for “units/mg trypsin. For comparison, trypsin was used as a control.”

For “human growth hormone/alpha-1 antitrypsin fusion [T109wt]”, the “serum half-life (t1/2)” value [1] was 5.3 h, the “time to peak serum concentration (Tmax)” value [1] was 8 h and the EC50 [2] was 0.212 nM. The “Ka (association equilibrium constant) with trypsin” value (trypsin) was “about 7.5×10^8 M^−1” and the “inhibition of human neutrophil elastase” value [3] was about 100%.
